Experimental data taken from US20040170601A1, “Method of improving the growth performance of an animal” (priority 2001, published 2004).
Values joined by “and” are separate entries in the source; they are usually repeats but may differ in a detail not shown here. Equal entries are not always repeated. “Also recorded” adds a separate entry of the source.

Assays:
eosinophils = test: Example 2: high dose and multiple dose IL-5 on eosinophil numbers in blood; format: in vivo, pigs; conditions: rec.IL-5 IM 100 μg x1/x2/x4 or 500 μg x1
Method: This trial compared 2 doses of recombinant IL-5 (100 μg/500 μg) and compared multiple injections (x1/x2/x4) of one dose (100 μg) to elevate eosinophil numbers.
The experiment was conducted using medicated feed Barastoc EziWean 150 then Bunge Grolean CREEP ad libitum in an experimental environment (PC2 containment facilities). Blood total and differential counts were performed using a CellDyn 3700 haematology machine.
8 hrs later, bleed for haematology

[1] = Example 4: growth performance of pigs administered IL-5 in a commercial piggery; format: in vivo; parameters: average weight, higher than saline medicated controls / rate of gain (ROG), increase over saline medicated control / increase in total weight compared to saline medicated control group / increase in weight gain compared to saline medicated control group / increase in average weight compared to saline medicated control group: concentration or dose not given beside the values
Method: This trial evaluated the capacity of IL-5 to improve growth performance and immunity of pigs by comparing the growth rate and health of weaner pigs (28 day old weaners is Day 0 of the trial and the weaner period continued for 42 days) through to the finisher stage (Days 93 to 113) and slaughter (133 days after commencing the trial). The pigs were administered recombinant porcine cytokine, IL-5, and saline was used as a control, with and without standard weaner medicated water and feed in a commercial piggery environment.
40 pigs per treatment mixed in-groups of 20, with 4 replicates containing standard medicated water and feed and 4 replicates without medicated feed or water.
Overall weights for each group at the start of the experiment were equivalent. All pigs at the start of the trial (Day 0) were 28 day old male weaners.
IL-5 was provided in saline to inject one ml/pig.
Weights were measured at the start, weekly and at end of the experiment. The original proposal was designed for measuring weight over the weaner period; however, due to significant growth responses with IL-5 administration the measurement of weight continued to slaughter (pigs were 161 days old).
Recombinant porcine IL-5 was expressed in E. coli and purified using a polyHis tag system as described in Qiagen Inc, USA, instructions and Clontech, USA, Talon Manual instructions. IL-5 was tested for biological activity in a bioassay prior to the start of the experiment.
At the start of the trial, the mean weights and variance for each group were equalised. Thus, the increase in total or average weights witnessed in the IL-5 medicated group was due to IL-5 administration and not simply due to differences between weights at the start of the trial.

[2] = end of the treatment period, 1st trial, IL-5 plus medication

B1: interleukin 5 (protein, UniProt Q9MYM5 22-134, looked up)
Interleukin-5: VENTMNRLVAETLTLLSIHRTLLIGDGNLMISTPVHTNHQLCIEEVFQGIDTLKNQTARGDAVEKLFQNLSLIKEYIDRQKKNCGGERWRVTQFLDYLQVFLGVINTEWTMES
notes: recombinant porcine IL-5 protein expressed in E. coli; + / − = with / without antibiotic medicated feed and water, +p = weaner period only
Q: What does the source list for B1?
A: average percentage eosinophil of WBC over 11 days (area under the curve) (eosinophils): increased eosinophil numbers in blood and higher dose and multiple doses were statistically significant and 4 injections of 100 μg (Days 0, 1, 4, 7) being more effective than a single injection of a higher single dose (500 μg); consistency of growth performance (individual weights at end of weaner period) ([1]; IL-5 medicated group): more consistent than all other groups; average weight, higher than saline medicated controls ([1]; IL-5 medicated group, Week 1): 5.5%; rate of gain (ROG), increase over saline medicated control ([1]; IL-5 medicated group, Week 1): 45.6%; total combined group weight, higher than saline medicated group ([1]; IL-5 medicated group, Week 1): 5.5%; average weight, higher than saline medicated controls ([1]; IL-5 medicated group, Week 2): 6.3%; rate of gain (ROG), increase over saline medicated control ([1]; IL-5 medicated group, Week 2): 19.6%; total combined group weight, higher than saline medicated group ([1]; IL-5 medicated group, Week 2): 6.3%; average weight, higher than saline medicated controls ([1]; IL-5 medicated group, Week 3): 8.8%; rate of gain (ROG), increase over saline medicated control ([1]; IL-5 medicated group, Week 3): 18.2%; total combined group weight, higher than saline medicated group ([1]; IL-5 medicated group, Week 3): 8.8%; average weight, higher than saline medicated controls ([1]; IL-5 medicated group, Week 4): 5.5%; rate of gain (ROG), increase over saline medicated control ([1]; IL-5 medicated group, Week 4): 8.8%; total combined group weight, higher than saline medicated group ([1]; IL-5 medicated group, Week 4): 11.1%; average weight, higher than saline medicated controls ([1]; IL-5 medicated group, Week 5): 7.8%; rate of gain (ROG), increase over saline medicated control ([1]; IL-5 medicated group, Week 5): 11.3%; total combined group weight, higher than saline medicated group ([1]; IL-5 medicated group, Week 5): 13.4%; average weight, higher than saline medicated controls ([1]; IL-5 medicated group, Week 6): 6.8%; rate of gain (ROG), increase over saline medicated control ([1]; IL-5 medicated group, Week 6): 9.1%; total combined group weight, higher than saline medicated group ([1]; IL-5 medicated group, Week 6): 18.6%; average weights during weaner period ([1]; IL-5 un-medicated group vs un-medicated saline controls): consistently small increase in average weights over the un-medicated saline controls except for the last week; increase in average weight compared to saline medicated control group [1, 2]: 7%; increase in total weight compared to saline medicated control group [1, 2]: 18%; increase in weight gain compared to saline medicated control group [1, 2]: 9%; average weights of individual pigs during trial ([1]; medicated): consistently higher average weights than all other groups; increase of average warm carcass weight over the medicated saline control ([1]; medicated): 6 kg; rate of gain over the weaner period ([1]; medicated): consistently increased the rate of gain in the medicated pigs; total weights of all pigs in group over the entire production period ([1]; medicated): significant increase in total weights compared to all other groups; warm carcass weight ([1]; medicated with antibiotics, vs saline controls): increased warm carcass weight compared to saline controls when pigs were medicated with antibiotics; individual final weights ([1]; medicated, all pigs of group): above 90 kg; total combined group weight above saline medicated group ([1]; over 6 weeks for a group of 20 pigs, medicated): 89 kg; rate of gain over the weaner period ([1]; un-medicated): generally higher than the un-medicated saline control; variation in individual pig weights ([1]; up to slaughter): reduced variation in individual pig weights up to slaughter; dressing percentage of carcasses at slaughter ([1]; with or without antibiotics, vs saline controls): improved dressing percentage regardless of antibiotic administration; also recorded: significantly higher % dressing than the respective saline controls
